The values below come from paper PMC6307784.

For this data set, the target named is T1, NhaR-His6 (Escherichia coli) (UniProt P0A9G2).
T1 sequence: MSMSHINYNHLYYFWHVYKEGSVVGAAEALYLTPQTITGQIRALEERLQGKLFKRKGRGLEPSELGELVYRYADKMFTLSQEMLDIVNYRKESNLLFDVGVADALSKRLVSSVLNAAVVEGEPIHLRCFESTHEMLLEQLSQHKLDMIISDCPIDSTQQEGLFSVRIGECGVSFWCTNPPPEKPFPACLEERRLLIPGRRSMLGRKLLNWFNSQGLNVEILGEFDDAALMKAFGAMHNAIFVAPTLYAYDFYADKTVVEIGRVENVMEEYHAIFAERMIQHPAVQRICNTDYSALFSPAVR
Description: EMSA. The note with it: LightShift Chemiluminescent EMSA Kit (Pierce) as per manufacturer, DNA 1 fM as printed, 5% PAGE; buffer, salt, pH and temperature not stated.

Consider “TCGACGAAGATAGAATCGTCTTTTTCGCGAAGTCTTACAAGGCGCTTACAGACAATGCCTTAAGGAAAATTTCATATGAAAGTTAAGAATTAACAATCAACATTTTGATTTTAAATGAAAATAACGATTCTTATCTTTTTAAGTATTCGCTTATTTCCTGGCGATCTCCTACAGAGTCTGTAAGAGATCTCTCACAACCAGATGGGGTATTTGGATTA (double strand) [csrB promoter 220 bp]”, for which the binding entry is listed as “no binding”.
